From PMC7448383

B1: 100-base RNA (ssRNA)
RNA: AGCCUGAAUCUCAGAUUCCACCACAAAGACCUCAGCGGGAUCAAAGAGUGCGAGAACAACGAAUAAAUAUUCCUCCCCAAAGGGGACCCAGACCAAUCCG

Tests used:
Assay in all cases: EMSA
[1] = molecular target: G3BP1 dIDR3 (dRGG) (human, UniProt Q13283 1-410, del411-466)
[2] = molecular target: G3BP1 dRBD (human, UniProt Q13283 1-334, del335-466)
[3] = molecular target: G3BP1 WT (human, UniProt Q13283 1-466)
[4] = molecular target: G3BP1 S149A (human, UniProt Q13283 1-466, S149A)
G3BP1 S149A, sequence (Q13283 whole entry S149A): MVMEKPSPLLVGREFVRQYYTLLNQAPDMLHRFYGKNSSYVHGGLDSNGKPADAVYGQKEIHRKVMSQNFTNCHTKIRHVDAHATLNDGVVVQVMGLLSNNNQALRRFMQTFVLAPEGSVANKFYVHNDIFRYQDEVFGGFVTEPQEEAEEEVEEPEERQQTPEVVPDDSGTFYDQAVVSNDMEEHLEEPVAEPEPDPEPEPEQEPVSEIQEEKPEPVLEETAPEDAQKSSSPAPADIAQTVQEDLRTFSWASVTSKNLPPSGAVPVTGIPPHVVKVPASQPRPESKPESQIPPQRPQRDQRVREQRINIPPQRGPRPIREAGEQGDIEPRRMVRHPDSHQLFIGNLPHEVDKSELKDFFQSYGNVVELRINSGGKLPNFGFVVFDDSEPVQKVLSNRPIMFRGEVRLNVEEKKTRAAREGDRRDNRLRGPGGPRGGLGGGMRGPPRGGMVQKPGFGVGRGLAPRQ

G3BP1 dRBD, sequence (Q13283 1-334, stated change not applied): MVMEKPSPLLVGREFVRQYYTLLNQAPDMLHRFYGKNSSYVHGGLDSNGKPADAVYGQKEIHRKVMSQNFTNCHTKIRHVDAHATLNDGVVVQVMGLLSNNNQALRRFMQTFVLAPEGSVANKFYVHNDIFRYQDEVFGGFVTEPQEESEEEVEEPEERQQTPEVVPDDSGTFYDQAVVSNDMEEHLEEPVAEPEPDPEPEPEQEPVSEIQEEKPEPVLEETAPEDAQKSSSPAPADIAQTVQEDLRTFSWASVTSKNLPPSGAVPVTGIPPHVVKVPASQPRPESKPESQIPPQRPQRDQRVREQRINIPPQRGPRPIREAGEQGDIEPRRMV
G3BP1 dIDR3 (dRGG), sequence (Q13283 1-410, stated change not applied): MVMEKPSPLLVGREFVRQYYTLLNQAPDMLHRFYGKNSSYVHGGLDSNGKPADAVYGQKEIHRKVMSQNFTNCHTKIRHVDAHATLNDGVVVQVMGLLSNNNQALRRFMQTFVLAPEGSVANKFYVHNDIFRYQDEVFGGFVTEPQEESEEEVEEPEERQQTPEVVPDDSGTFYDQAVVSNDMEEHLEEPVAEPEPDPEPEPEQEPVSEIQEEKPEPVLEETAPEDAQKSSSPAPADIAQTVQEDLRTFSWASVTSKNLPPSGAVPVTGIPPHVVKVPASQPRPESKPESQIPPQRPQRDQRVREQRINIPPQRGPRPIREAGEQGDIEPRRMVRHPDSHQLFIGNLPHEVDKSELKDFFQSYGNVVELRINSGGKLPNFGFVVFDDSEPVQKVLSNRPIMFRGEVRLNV
G3BP1 WT, sequence (Q13283 whole entry): as the sequence (Q13283 whole entry S149A) above, with A149S counted along it

Binder	binding result [1]	binding result [2]	binding result [3]	binding result [4]
B1	no binding	no binding	–	–
AGAUUCCACCACAAAGACCC (ssRNA) [20-base RNA]	–	–	binds	binds
